Source: PMC8546539, “CK2 Phosphorylation of Human Papillomavirus 16 E2 on Serine 23 Promotes Interaction with TopBP1 and Is Critical for E2 Interaction with Mitotic Chromatin and the Viral Life Cycle” (mBio, 2021)

Legend:
[1] = biological target: TopBP1 (UniProt Q92547); assay: TopBP1 antibody co-IP, E2 Western blot; details: reference: E2-WT; sites S23
[2] = biological target: TopBP1 (UniProt Q92547); assay: TopBP1 antibody co-IP, E2 Western blot; details: reference: E2-WT; sites S23; remark: listed apart in the source
[3] = biological target: T1, GST TopBP1 (aa 32 to 1522) His (UniProt Q92547 32-1522); assay: pull-down; details: both partners purified
T1 construct: also called GST-tagged TopBP1; recombinant GST-TopBP1 (full length); source: E. coli BL21(DE3), purified (Glutathione Sepharose 4B, size exclusion chromatography)

Row | Molecule | binding against the reference [1] | binding against the reference [2] | binding result [3]
1 | HPV16 E2 (from UniProt P03120) E2-S23A | weaker | weaker | –
2 | His-E2-S23D (amino acids 1 to 200) (domain or fragment, source: E. coli BL21(DE3), purified (Ni-NTA agarose, size exclusion chromatography)) METLCQRLNVCQDKILTHYENDDTDLRDHIDYWKHMRLECAIYYKAREMGFKHINHQVVPTLAVSKNKALQAIELQLTLETIYNSQYSNEKWTLQDVSLEVYLTAPTGCIKKHGYTVEVQFDGDICNTMHYTNWTHIYICEEASVTVVEGQVDYYGLYYVHEGIRTYFVQFKDDAEKYSKNKVWEVHAGGQVILCPTSVF | – | – | binds
